Source: article PMC9272835

Molecular target: trastuzumab
Experiment: BLI; trastuzumab (5 µg/mL) captured on anti-human IgG Fc (AHC) biosensors; serial dilutions of the masks or HER2 in solution; DPBS, 0.1% BSA, 0.02% Tween 20; global fit to a 1:1 model

Kd: 0.192 nM
half-life of dissociation: 3.3 h
koff: 5.76e-05 s⁻¹
B1: dAb (VHH)
VHH: EVQLVESGGGLVQAGDSLTLSCAASGRTFSSVAMGWFRQAPGKERKFVANISWNGDSTYYTDSVKGRFTISRDNAKNTVYLQMSSLKPEDTAVYYCAADVRWTGDGHRADYWGQGTQVTVSS
